According to PMC12637205, “A natural allele of the transcription factor gene TaMYB-D7b is a genetic signature for phosphorus deficiency in wheat”:

Biological target: TaMYB-D7b (2174 allele, Gly-50) (Triticum aestivum cv. 2174, UniProt A0A410P7J2)
Assay: EMSA; EMSA: 100 fmol biotin probe, 1 ug protein, 20 uL, 1x binding buffer, 2.5% glycerol, 5 mM MgCl2, 1 ug poly(dI-dC), room temperature 30 min; pH and salt not given
Details: protein: recombinant; tags: His (pET32a vector); label: 5'-biotin

TaMYB-D7b (2174 allele, Gly-50), sequence (A0A410P7J2 entry or part of it): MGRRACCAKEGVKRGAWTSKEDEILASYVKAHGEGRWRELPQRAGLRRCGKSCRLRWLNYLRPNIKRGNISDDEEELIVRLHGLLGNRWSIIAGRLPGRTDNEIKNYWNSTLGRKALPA

B1: TaCHSL-A2 promoter probe (27 bp) (dsDNA)
DNA 1: TGCAAAGAAAACCAACCAACACTTACC
DNA 2: GGTAAGTGTTGGTTGGTTTTCTTTGCA
B1: binds.
